Test results published in the supplement of paper PMC10567573.

B1: FAM189A2 (parent)
chain: CALNALTTTVCLVAAALRYLQIFA

Variants of: B1
Experiment: protein stability index of a GFP-peptide fusion (GPS, HEK-293T) (PSI 1-6); higher = more stable
Settings: c terminus: a fixed tail appended
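Further: lentivirally expressed fusions sorted by FACS into six bins by GFP to DsRed ratio, PSI derived from sequencing read proportions per bin multiplied by bin number.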

Variant | protein stability index
V13F | 3.5
V13G | 3.15
V13I | 2.9
V13K | 2.78
V13L | 2.8
V13M | 2.25
V13N | 2.88
V13P | 2.88
V13Q | 2.8
V13R | 3.73
V13S | 2.06
V13T | 3
V13W | 3.96
V13Y | 2.68
A14C | 4.5
A14E | 3.46
A14F | 3.14
A14G | 2.74
A14H | 4.41
A14I | 3.7
A14K | 2.69
A14L | 3.6
A14M | 3.17
A14N | 3.17

Variant | protein stability index
A14P | 3.27
A14Q | 2.2
A14R | 2.23
A14S | 4.79
A14T | 3.07
A14V | 1.9
A14W | 1.93
A15C | 2.71
A15D | 3.14
A15F | 4.15
A15G | 2.9
A15H | 2.6
A15I | 3.05
A15K | 2.76
A15L | 2.19
A15M | 3.68
A15N | 3.15
A15Q | 2.05
A15R | 2.41
A15S | 3.48
A15T | 1.8
A15V | 3.64
A15W | 2.59
A15Y | 3.03

Variant | protein stability index
A16C | 4.04
A16D | 3.52
A16E | 3.27
A16F | 2.55
A16H | 3.78
A16I | 4.22
A16K | 4.22
A16L | 3.09
A16N | 2.1
A16P | 2.79
A16R | 3.06
A16S | 2.97
A16T | 1.94
A16V | 3.33
A16W | 1.55
A16Y | 2.27
L17A | 1.47
L17C | 3.24
L17E | 3.03
L17F | 3.04
L17G | 3.97
L17H | 2.72
L17I | 4.04
L17K | 3.29

Variant | protein stability index
L17M | 4.11
L17N | 3.87
L17P | 2.91
L17Q | 2.57
L17T | 2.14
L17V | 1.38
L17W | 3.15
L17Y | 2.25
R18C | 3.91
R18D | 3.02
R18E | 3.6
R18G | 3.25
R18I | 3.84
R18K | 3.85
R18L | 2.98
R18M | 1.38
R18N | 3.9
R18P | 1.82
R18Q | 2.72
R18T | 2.38
R18V | 3.16
R18W | 2.99
R18Y | 3.89
Y19A | 3.25

Variant | protein stability index
Y19C | 3.41
Y19E | 3.73
Y19F | 3.29
Y19H | 1.98
Y19I | 3.74
Y19K | 2.19
Y19L | 3.58
Y19N | 3.25
Y19P | 2.86
Y19R | 2.4
Y19S | 3.45
Y19V | 1.9
Y19W | 3.75
L20F | 2.75
L20G | 2.41
L20I | 2.76
L20K | 3.6
L20M | 3.29
L20N | 2.53
L20Q | 3.06
L20R | 3.02
L20T | 3.88
L20V | 1.72
Q21A | 3.09

Variant | protein stability index
Q21C | 2.75
Q21E | 3.35
Q21F | 2.15
Q21G | 2.9
Q21I | 2.65
Q21K | 2.07
Q21L | 3.19
Q21N | 2.02
Q21R | 1.72
Q21S | 1.64
Q21T | 3.12
Q21V | 2.12
Q21W | 2.74
Q21Y | 3.35
I22A | 1.99
I22E | 3.28
I22F | 2.44
I22G | 3.11
I22H | 2.75
I22K | 2.14
I22L | 2.83
I22M | 3.76
I22N | 2.58
I22P | 4.03

Variant | protein stability index
I22Q | 2.9
I22R | 2.16
I22S | 3.43
I22T | 2.33
I22V | 2.72
I22W | 3.83
I22Y | 2.44
F23C | 3.26
F23D | 2.47
F23E | 3.61
F23G | 4.67
F23H | 4.92
F23I | 3.76
F23K | 2.94
F23L | 3.45
F23M | 4.05
F23N | 4.28
F23P | 3.42
F23Q | 4.3
F23R | 3.81
F23S | 3.01
F23T | 2.22
F23V | 4.08
